From patent US20130157959

How the values were obtained:
[1] = target: in vitro translated 35S-labelled p53 (wild-type), P04637
[2] = target: in vitro translated 35S-labelled mutant p53 K24R, P04637

B1: GST-Hades Ring protein (RP) (protein)
chain: RLKQMQEEFQEHEAQLLSRAKPEDRESLKSACVVCLSSFKSCVFLECGHVCSCTECYRALPEPKKCPICRQAITRVIPLYN
- in vitro ubiquitination of 35S-labeled p53 with E1 and several E2 enzymes, autoradiography [1]: The 35S-labeled p53 was polyubiquitinated in an Ubc5a or Ubc5c-dependent manner
- in vitro ubiquitination of 35S-labelled p53, SDS-PAGE and autoradiography [1]: WT p53 was ubiquitinated by Hades
- in vitro ubiquitination of p53 with E1, E2 (UbcH5c) and His-ubiquitin, anti-p53 immunoblot [1]: The p53 ubiquitination was only induce by Hades
- in vitro ubiquitination of p53 lysine mutants, immunoblot (mutant p53 6CKR, P04637): Hades was still able to ubiquitinate a form of p53 in which all six lysines was mutated (6CKR)
- in vitro ubiquitination of 35S-labelled p53 K24R, SDS-PAGE and autoradiography [2]: the in vitro translated p53 K24R was not ubiquitinated by Hades
